From patent US20180155451A1 (published 2018)
Numbering of substitutions follows the chain as printed.

T1: FcgRIIb extracellular domain, C-terminal His tag (human, UniProt P31994 43-217)
T1 construct: extracellular domain; also called FcγRIIb; 2b; not shown: His tag attached to the C terminus
T1 sequence (looked up): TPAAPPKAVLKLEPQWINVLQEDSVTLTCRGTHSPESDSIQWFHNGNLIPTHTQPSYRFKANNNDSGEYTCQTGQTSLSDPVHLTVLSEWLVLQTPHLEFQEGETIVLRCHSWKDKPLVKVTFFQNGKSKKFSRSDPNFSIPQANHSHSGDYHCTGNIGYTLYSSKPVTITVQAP

T2: FcgRIIa R type extracellular domain, C-terminal His tag (human, UniProt P12318 34-217)
T2 construct: extracellular domain; also called FcγRIIa R; 2aR; not shown: His tag attached to the C terminus
T2 sequence (looked up): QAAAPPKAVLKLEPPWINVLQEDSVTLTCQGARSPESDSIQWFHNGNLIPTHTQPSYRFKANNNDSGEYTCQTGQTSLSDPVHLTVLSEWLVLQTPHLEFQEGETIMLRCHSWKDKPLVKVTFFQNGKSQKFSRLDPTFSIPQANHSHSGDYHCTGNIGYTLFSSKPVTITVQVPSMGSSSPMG

T3: FcgRIIa H type extracellular domain, C-terminal His tag (human, UniProt P12318 34-217)
T3 construct: extracellular domain; also called FcγRIIa H; 2aH; not shown: His tag attached to the C terminus
T3 sequence (looked up): T2 sequence (looked up) with R134H

T4: FcgRIIb extracellular domain with C-terminal His tag (human, UniProt P31994 43-217)
T4 construct: extracellular domain; also called FcγRIIb; not shown: His tag attached to the C terminus
T4 sequence (looked up): T1 sequence (looked up)

B1: H240-FA020/H240-FB059/L73-k0 (antibody, human IgG1, kappa)
heavy 1: QDQLVQSGAEVKKPGASVKVSCKASGFNIKDTYIQWVRQAPGQGLEWMGRIDPLRKQTKYREKFEGRVTITADTSTNTAYMELSSLRSEDTAVYYCVRSGREFDYWGQGTLVTVSSASTKGPSVFPLAPSSKSTSGGTAALGCLVKDYFPEPVTVSWNSGALTSGVHTFPAVLQSSGLYSLSSVVTVPSSSLGTKTYTCNVNHKPSNTKVDKKVEPKSCDKTHTCPPCPAPEYYWGPSVFLFPPKPKDTLMISRTPEVTCVVVDVSDEEPEVKFNWYVDGVEVHNAKTKPREEQYNATYRVVSVLTVLHQDWLNGKEYKCKVSNKALPAPIEKTISKAKGQPREPQVYTLPPSRKEKTKNQVSLTCLVKGFYPSDIAVEWESNGQPENNYKTTPPVLDSDGSFFLYSKLTVDKSRWQQGNVFSCSVMHEALHNRYTQKSLSLSP
heavy 2: QDQLVQSGAEVKKPGASVKVSCKASGFNIKDTYIQWVRQAPGQGLEWMGRIDPLRKQTKYREKFEGRVTITADTSTNTAYMELSSLRSEDTAVYYCVRSGREFDYWGQGTLVTVSSASTKGPSVFPLAPSSKSTSGETAALGCLVEDYFPEPVTVSWNSGALTSGVHTFPAVLQSSGLYSLSSVVTVPSSSLGTQTYICNVNHKPSNTKVDKKVEPKSCDKTHTCPPCPAPELLGGPSVFLFPPKPKDTLMISRTPEVTCVVVDVSHEEPEVQFNWYVDGVEVHNAETKPREEQYNSTYRVVSVLTVLHQDWLNGKEYKCKVSNDALPMPIEETISKAKGQPREPQVYTLPPSREEMTKNQVSLTCLVKGFYPSDIAVEWESNGQPENNYKTTPPVLDSDGSFFLYSKLTVDKSRWQQGNVFSCSVMHEALHNHYTQESLSLSP
light: DIQMTQSPSSLSASVGDRVTITCRASQDIHKYIAWYQQKPGQAPRLLIQYTSTLQPGVPSRFSGSGSGTDYTFTISSLQPEDIATYYCLQYEQLRTFGGGTKVEIKRTVAAPSVFIFPPSDEQLKSGTASVVCLLNNFYPREAKVQWKVDNALQSGNSQESVTEQDSKDSTYSLSSTLTLSKADYEKHKVYACEVTHQGLSSPVTKSFNRGEC
notes: Heterodimerized anti-epiregulin IgG1 antibody
B2: H240-FA021/H240-FB082/L73-k0 (antibody, human IgG1, kappa)
heavy 1: B1 heavy 1 with V396K
heavy 2: B1 heavy 2 with N383E
light: B1 light
notes: as for B1
B3: H240-FA021/H240-FB083/L73-k0 (antibody, human IgG1, kappa)
heavy 1: B1 heavy 1 with V396K
heavy 2: B1 heavy 2 with G136E, E137S, S191N, L192F, I198T, N202D, K213T
light: B1 light
notes: as for B1
B4: H240-FA020/H240-FB084/L73-k0 (antibody, human IgG1, kappa)
heavy 1: B1 heavy 1
heavy 2: B1 heavy 2 with G136E, E137S, S191N, L192F, I198T, N202D, K213T, N383E
light: B1 light
notes: as for B1
B5: H240-FA020/H240-FB083/L73-k0 (antibody, human IgG1, kappa)
heavy 1: B1 heavy 1
heavy 2: B1 heavy 2 with G136E, E137S, S191N, L192F, I198T, N202D, K213T
light: B1 light
notes: as for B1
B6: H240-FA021/H240-FB084/L73-k0 (antibody, human IgG1, kappa)
heavy 1: B1 heavy 1 with V396K
heavy 2: B1 heavy 2 with G136E, E137S, S191N, L192F, I198T, N202D, K213T, N383E
light: B1 light
notes: Heterodimerized anti-epiregulin IgG1 antibody; also called H240-FA021/H240-BF084/L73-k0
B7: H240-FA020/H240-FB082/L73-k0 (antibody, human IgG1, kappa)
heavy 1: B1 heavy 1
heavy 2: B1 heavy 2 with N383E
light: B1 light
notes: as for B1
B8: GpH7-G1d/GpL16-k0 (antibody, human IgG1, kappa)
heavy: not shown
light: DIVMTQSPLSLPVTPGEPASISCQASESLVHSNRNTYLHWYLQKPGQSPQLLIYKVSNRFSGVPDRFSGSGSGTDFTLKISRVEAEDVGVYYCSQNTHVPPTFGQGTKVEIERTVAAPSVFIFPPSDEQLKSGTASVVCLLNNFYPREAKVQWKVDNALQSGNSQESVTEQDSKDSTYSLSSTLTLSKADYEKHKVYACEVTHQGLSSPVTKSFNRGEC
notes: Anti-glypican-3 native-type human IgG1 control; also called native IgG1
B9: GpH7-G1d/GpL16-k0 (antibody, human IgG1, kappa)
heavy: not shown
light: B8 light
notes: Anti-glypican-3 IgG1 lacking the C-terminal Gly and Lys; also called native IgG1

The binders below were run against T1, FcgRIIb extracellular domain, … (assay: SPR (Biacore), antibody captured on chip, FcgR extracellular domain as analyte, 25 C, 1:1 Langmuir fit; experiment #3).
Experimental: (§1) Antibodies of interest were analyzed for the interaction to FcgR according to the method described in Reference Example 8.
(§2) Analysis of interaction between obj ective antibody and the FcγR was carried out using Biacore T100 (GE Healthcare), Biacore T200, Biacore A100, and Biacore 4000. HBS-EP+ (GE Healthcare) was used as the running buffer, and the measurement temperature was set to 25° C. Chips produced by immobilizing the antigen peptide by the amine coupling method to a Series S sensor Chip CM5 (GE Healthcare), chips produced by allowing preliminarily biotinylated antigen peptides to interact with and immobilize onto a Series S Sensor Chip SA (certified) (GE Healthcare), chips produced by immobilizing Protein L (ACTIGEN, BioVision) to Series S Sencor Chip CM5 (GE Healthcare), or chips produced by immobilizing Protein A/G (Thermo Scientific) to Series S Sencor Chip CM5 (GE Healthcare) were used. Antibodies of interest were captured onto these chips, and allowed to interact to each FcγR diluted with running buffer. To regenerate and repeatedly use the chip, the antibodies captured onto the chip were washed off by reacting 10 mM glycine-HCl, pH 1.5.

Row | Kd | Binder
1 | 1300 nM | B1
2 | 1600 nM | B2
3 | 1300 nM | B3
4 | 1400 nM | B4
5 | 1000 nM | B5
6 | 1300 nM | B6
7 | 1200 nM | B7

What follows are binders tested against T5, FcgRIIIa V type extracellular domain, C-terminal His tag (human, UniProt P08637 17-208) in the same assay as above.
T5 construct: extracellular domain; also called FcγRIIIa V; 3aV; not shown: His tag attached to the C terminus
T5 sequence (P08637 17-208 F176V limits assumed): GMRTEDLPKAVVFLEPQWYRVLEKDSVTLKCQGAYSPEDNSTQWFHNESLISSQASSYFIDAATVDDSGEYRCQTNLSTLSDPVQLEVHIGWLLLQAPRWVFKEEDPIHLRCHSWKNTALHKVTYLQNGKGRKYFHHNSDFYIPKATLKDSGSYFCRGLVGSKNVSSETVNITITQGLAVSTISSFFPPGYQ
Experimental: as §1, §2

Row | Kd | Binder
8 | 1.3 nM | B1
9 | 1.5 nM | B2
10 | 1.4 nM | B3
11 | 1 nM | B4
12 | 1.1 nM | B5
13 | 1.3 nM | B6
14 | 1.1 nM | B7

These binders were tested against T6, FcgRIIIa F type extracellular domain, C-terminal His tag (human, UniProt P08637 17-208) in the same assay as above.
T6 construct: extracellular domain; also called FcγRIIIa F; 3aF; not shown: His tag attached to the C terminus
T6 sequence (P08637 17-208): as the sequence (P08637 17-208 F176V limits assumed) above, with V160F counted along it
Experimental: as §1, §2

Row | Kd | Binder
15 | 3.5 nM | B1
16 | 4.2 nM | B2
17 | 3.9 nM | B3
18 | 3.5 nM | B4
19 | 3.4 nM | B5
20 | 3.3 nM | B6
21 | 3.4 nM | B7

These binders were tested against T7, FcgRI extracellular domain, C-terminal His tag (human, UniProt P12314 16-292) in the same assay as above.
T7 construct: extracellular domain; also called FcγRIa; FcgRIa; not shown: His tag attached to the C terminus
T7 sequence (P12314 16-292): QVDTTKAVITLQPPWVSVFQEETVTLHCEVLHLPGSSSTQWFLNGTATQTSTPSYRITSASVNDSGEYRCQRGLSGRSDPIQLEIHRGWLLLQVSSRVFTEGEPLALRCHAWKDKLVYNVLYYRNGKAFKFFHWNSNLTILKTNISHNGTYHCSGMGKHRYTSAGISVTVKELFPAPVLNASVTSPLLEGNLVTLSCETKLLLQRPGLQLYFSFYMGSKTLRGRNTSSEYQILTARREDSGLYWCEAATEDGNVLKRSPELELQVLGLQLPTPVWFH
Experimental: as §1, §2

Row | Kd | Binder
22 | 0.038 nM | B1
23 | 0.06 nM | B2
24 | 0.078 nM | B3
25 | 0.068 nM | B4
26 | 0.12 nM | B5
27 | 0.033 nM | B6
28 | 0.079 nM | B7

What follows are binders tested against T2, FcgRIIa R type extracellular domain, … in the same assay as above.
Experimental: as §1, §2

Row | Kd | Binder
29 | 250 nM | B1
30 | 230 nM | B2
31 | 240 nM | B3
32 | 220 nM | B4
33 | 230 nM | B5
34 | 230 nM | B6
35 | 270 nM | B7

The binders below were run against T3, FcgRIIa H type extracellular domain, … in the same assay as above.
Experimental: as §1, §2

Row | Kd | Binder
36 | 77 nM | B1
37 | 77 nM | B2
38 | 69 nM | B3
39 | 57 nM | B4
40 | 65 nM | B5
41 | 69 nM | B6
42 | 69 nM | B7

What follows are binders tested against T8, FcγRIIIa extracellular domain with C-terminal His tag (human, UniProt P08637 17-208) (assay: SPR (Biacore), ratio of KD values for FcγRIIIa).
T8 construct: extracellular domain; also called FcgRIIIa; CD16A
T8 sequence (P08637 17-208): as the sequence (P08637 17-208 F176V limits assumed) above, with V160F counted along it
Excerpt: GpH7-A57 (SEQ ID NO: 40) resulting from the introduction of all of S239D, A330L, and I332E into GpH7-A5; GpH7-B78 (SEQ ID NO: 41) resulting from the introduction of all of S239D, A330L, and I332E into GpH7-B3; GpH7-TA7 (SEQ ID NO: 31) resulting from the introduction of all of L234Y, G236W, and S298A into GpH7-A5; and GpH7-TA45 (SEQ ID NO: 32) resulting from the introduction of all of L234Y, G236W, and S298A into GpH7-B3. […] The prepared antibodies were compared for the FcγRIIIa-binding activity using, as an indicator, KD for FcγRIIIa that was determined according to the method described in Reference Example 2.
(§3) Analysis of interaction between objective antibody and the FcγR was carried out using Biacore T100 (GE Healthcare). HBS-EP+ (GE Healthcare) was used as the running buffer, and the measurement temperature was set to 25° C. Chips produced by immobilizing the antigen peptide by the amine coupling method to a Series S Sencor Chip CM5 (GE Healthcare), or alternatively, chips produced by allowing preliminarily biotinylated antigen peptides to interact with and immobilize onto a Series S Sensor Chip SA (certified) (GE Healthcare) were used. Antibodies of interest were captured onto an antigen peptide-immobilized chip, and allowed to interact to each FcγR diluted with running buffer. To regenerate and repeatedly use the chip, the antibodies captured on the chip were washed off by reacting 10 mM glycine-HCl, pH 1.5.

Row | KD ratio 1 (KD of GpH7-G1d/GpL16-k0 divided by KD of the antibody) | Binder
43 | 1 fold | B8

Each binder was assayed against T9, FcgRIIIa F extracellular domain with C-terminal His tag (human, UniProt P08637 17-208) (assay: ratio of SPR (Biacore) KDs, FcγRIIb as reference).
T9 construct: extracellular domain; also called FcγRIIIa F; FcγRIIIa (F158); not shown: His tag attached to the C terminus
T9 sequence (P08637 17-208): as the sequence (P08637 17-208 F176V limits assumed) above, with V160F counted along it
Experimental: (§4) The prepared antibodies were assayed as to the KDs for FcγRIIIa and FcγRIIb according to the method described in Reference Example 2.
as §3
(§5) The FcγR-binding activity of each antibody was assessed primarily using as an indicator the FcγR-binding activity and dissociation constant for FcγR.

Row | FcγRIIIa F/FcγRIIb ratio (KD for FcγRIIb / KD for FcγRIIIa F) | Binder
44 | 2.5 | B9

What follows are binders tested against T8, FcγRIIIa extracellular domain with … (assay: SPR (Biacore), antibody captured, FcγRIIIa as analyte, 1:1 Langmuir kinetic fit).
Experimental: The prepared antibodies were compared for the FcγRIIIa-binding activity using, as an indicator, KD for FcγRIIIa that was determined according to the method described in Reference Example 2.
as §3, §5

Row | Kd | Binder
45 | 1200 nM | B8

The binders below were run against T9, FcgRIIIa F extracellular domain with … (assay: SPR (Biacore T100), antibody captured on antigen peptide chip, FcγR extracellular domain as analyte, kinetic analysis).
Experimental: as §4, §3, §5

Row | Kd | Binder
46 | 1200 nM | B9

What follows are binders tested against T4, FcgRIIb extracellular domain with … in the same assay as above.
Experimental: as §4, §3, §5

Row | Kd | Binder
47 | 3100 nM | B9
